The chains are these.
B1: MPK158 (antibody, V domains shown)
VH: EVQLVESGGGLVKPGGSLRLSCAASGFSISGFYMIWIRQAPGKGLEWISDISASSSYIDYADSVKGRFTISRDNGQNTVHLLMNNLRADDTGVYYCAREQTPSPGPFDLWGQGTLVTVST
VL: QPVLTQPPSVSGAPGQRVTISCTGRSSNIGAGYDVHWYQHLPGTSPKLLIYRNSNRPSGVPDRFSGSTSGTSASLAITGLQADDEADYYCQAYDRILGGWAFGGGTKLTVL
B2: MPK136 (antibody, V domains shown)
VH: EVQLVESGGGLVKPGGSLRLSCEASGFSLSGYYMIWIRQAPGKGLEWISSISGSGNYINYADSVKGRFTVSRDNGHNTLYLQMNSLRVEDTAVYYCATEQTPSPGPFDHWGQGTLVTVSS
VL: QVQLVQPPSVSGAPGQRVSISCTGTSSNIGTGYDVHWYQQFPGTSPKLLIYRNTNRPSGVPDRFSGSKSGSSASLAIAGLQAEDEADYYCQSYDRSVSGWVFGGGTKLTVL
B3: MPK150-v2 (antibody, V domains shown)
VH: EVQLVESGGGLVKPGGSLRLSCEASGISLSGYYMIWIRQAPGKGLEWISSISGSSTYIDYADSVRGRFTISRHNGQNTIYLQMNSLRVEDTAVYFCATEQTPSPGPFELWGRGILVTVSS
VL: B2 VL with V2S, Q3V, V5T, S19T, S21F, Y51F, T54S, S96G, S98N
B4: MPK204 (antibody, V domains shown)
VH: B2 VH with E1Q, F27L, G53S, G55S, N59D, V70I, D73H, H76Q, H109L
VL: B2 VL with V2S, Q3V, V5T, S19T
B5: MPK149 (antibody, V domains shown)
VH: QVQLVESGGGLVKPGGSLRLSCEASGFTISGYFMIWIRQAPGKGLEWISSISGSSTYTDYAESVKGRFTISRDNGRSTLYLQMNSLRVEDTAVYYCATEQTPSPGPFDLWGQGTLVTVSS
VL: B2 VL with V2S, Q3V, L4V, V5T, S19T, T31A, K47R, Y51N, K68Q
B6: MPK162 (antibody, V domains shown)
VH: EVQLVESGGGLVKPGDSLRLSCAASGFSLSSYYMFWIRQAPGKGLEWVSDISGGSTFTNYADSVKGRFTISRDNAKKVLYLQMNSLRVDDSAVYYCVRGSSISPNWFESWGQGALVTVSS
VL: QSVLTQPPSVSGAPGQRVTISCTGTSSNIGAGYDVHWYQQVPGTAPKLLIYGNSNRPSGVPDRFSGSKSGTAASLAINGLQTEDEAEYYCQSYDRSLTGSYVFGSGTRVFVR
B7: MPK141 (antibody, V domains shown)
VH: EVQLVESGGGLVKPGGSLRLSCAASGFTISGYYMTWIRQAPGKGLEWISYISGSSSYTNYADSVKGRFTISRDNGRNSVYLQMNSLRADDTGVYYCAREETPSPGPFDSWGQGILVTVSS
VL: QSVLTQPPSVSGAPGQRIIISCIGSSSNIGTGYDVHWYQQLPGRAPKLLISRNTNRPSGIPDRFSGSKSGTSASLAITGLQADDEADYYCQSYDRGLDGWVFGGGTKLTVL
B8: MPK133 (antibody, V domains shown)
VH: QVQLVQSGGGLVKPGGSLRLSCAASEFSFSGYFMIWIRQAPGKGLEWISYISGSSTYTNYADSVKGRFTISRDNAQNTLYLEMNSLRAEDTGVYYCATEQVPSPGPFDLWGQGTLVTVSS
VL: QSVLTQPPSVSGAPGQRVTISCTGSSSNIGAGYDVHWYQQFPGRSPTLLIYRNTNRPSGVPDRFSGSQSGSSASLAITGLQAEDEADYYCQSYDRTLSGWAFGGGTKVTVL
B9: MPK126 (antibody, V domains shown)
VH: EVQLVESGGGLVKPGGSMRLSCAASGVTLSGYYMIWIRQAPGKGLEWISDISASSTYTDYADSVKGRFTVSRDNSQNTVYLQMNSLRAEDTAVYYCATEQTPSPGPFDLWGQGTLVTVSS
VL: QSVLTQPPSVSGAPGQRVTISCTGSSSNVGAGYDVHWYQQFPGTSPKLLIYRNTNRPSGVPDRFSGFKSGTSASLAITGLEAEDEADYYCQSYDRSLSGWVFGAGTKLTVL
B10: MPK146 (antibody, V domains shown)
VH: QVQLVESGGGLVKPGGSLRLSCAASGFTFSGYYMIWIRQAPGKGLEWIASISGSSNYIDYADSVRGRFTISRDNARNILDLQMNSLRAGDTALYYCATEQVPSPGPFDLWGQGTLVTVSS
VL: B9 VL with S26N, V29L, S65A, F67S, E81Q, A104G
B11: MPK174-v2 (antibody, V domains shown)
VH: EVQLVESGGGLVKPGGSLRLSCAASRFKFGDYYMSWIRQAPGKGLEWVSNISPSSSYTNYADSVKGRFTISRDNAKNLLYLQMNSLRAEDTAVYYCARESCSGGSCSLHGMDVWGQGTTVTVAS
VL: QSVLTQPPSVSGAPGQRVTISCTGSSSNIGAGYDVHWYQQLPGTAPKLLIYDNSNRPSGVPDRFSGSKSGTSASLAITGLRAEDDADYYCQSYDRSLGGSIFGGGTKLTVL
B12: MPK196 (antibody, V domains shown)
VH: B11 VH with E1Q, K76N
VL: B11 VL
B13: MPK144 (antibody, V domains shown)
VH: EVQLVESGGGLVRPGGSLRLSCAASGFTFTGYYMMWIRQAPGKGLEWISDISSSSSYTNYADSVKGRFAISRDNAQNTLYLQMNSLRAEDTAVYYCATEQVPSPGPFDLWGQGTLVTVSS
VL: B9 VL with V29F, F67S, E81Q, S98T, A104G
B14: MPK130 (antibody, V domains shown)
VH: EVQLVESGGGLVKPGGSLTLSCEASGFSISGYYMIWVRQAPGKGLEWVSSISASDTYIDYAVSVQGRFTISRHNTKNSLYLQMSSLRVEDTGVYYCTREKVPSPGPFDCWGQGTLVTVSS
VL: QSVLTQPPSVSGAPGQRITISCTGTSSNIGAGYDVHWYQHLPGAAPRLLIYVNTNRPSGVPDRFSGARSGTSASLAITGLQAEDEADYYCQSYDRSLGGWAFGEGTKVTVL
B15: MPK142-v1 (antibody, V domains shown)
VH: EVQLVESGGGLVEPGGSLRLSCAASGFTISGYGMSWVRQAPGKGLEWVSSISASSSYIYYGDAMKGRITISRDNGWNSMYLQMNSLRTEDTAVYYCATAPIEPPYFDLWGRGTLVTVSS
VL: QSVLTQPPSVSGAPGQRVTISCTGSSSNIGAGYDVHWYQQFPGKAPKVLIYGNNNRPSGVPDRFAASNSGASASLAITGLQAEDEAAYFCQSYDRRLSGPVFGGGTKLTVL
B16: MPK142-v2 (antibody, V domains shown)
VH: B15 VH
VL: DIQLTQTPTSLSASVGDRVTFTCRASQNIGFYLNWYQQKPGKAPRLLIYGASNLQSGVPSRFSGSGAGTDFSLTISSLQPEDFATYYCQQSFNTPRTFGQGTKVEIN
B17: MPK145 (antibody, V domains shown)
VH: B15 VH
VL: B15 VL with L4V
B18: MPK201 (antibody, V domains shown)
VH: EVQLVQSGAEVKKPGESLKISCQGSGYSFINYWIGWVRQKPGKGLEWMGIIYPFDSETKYSPSFQGHVTFSADKSINTAYVQWSSLRASDTAMYYCARFTFGLAVTTADVSGEGQAFEIWGQGTMVTVSS
VL: EIVMMQSPATLSVSPGERATLSCRASQSVAGNLAWYQQRPGQAPRLLVYGASTRASGVPARFSGSGSETEFTLTISSLQSEDFAVYYCHHYSDWPQAFGQGTRLDIK

Where a chain is given by its changes, count along the chain named.

In one assay the target is MPV fusion glycoprotein with the D280N mutation (MPV-F N280) (metapneumovirus). Nature of the assay: SPR; F protein loaded on streptavidin sensors, mAb in solution. (In general: In SPR one partner is held on a chip, and binding of the other changes the refractive index at the surface.)
For B1, the Kd (commonly the free concentration of one partner at which half of the binding sites on the other are occupied at equilibrium, for simple one-to-one binding) worked out at 0.29 nM.
B2 showed a Kd of 4.6 nM. Against the preceding molecule, the Kd is about 16-fold higher.
On the same count and under the same terms, the value for B3 was 0.58 nM; that for B4 was 2.6 nM; that for B5 was 0.4 nM.
On to B6, for which the Kd worked out at 100 nM.
On the same count and under the same terms, the value for B7 was 0.84 nM.
Same read-out and setting: the value for B8 was 3.7 nM; that for B9 was 0.21 nM; that for B10 was 7.2 nM.
B11: the Kd is 100 nM.
Still for that read-out and setting: to B12 belongs 100 nM.
The molecule B13 yielded a Kd of 100 nM.
On the same count and under the same terms, to B14 belongs 1.9 nM; to B15, 100 nM; to B16, 0.2 nM.
Same read-out and setting: to B17 belongs 0.85 nM.

A further assay has as its target MPV fusion glycoprotein without the D280N mutation (MPV-F D280) (metapneumovirus). The assay is described as above.
For the molecule B1, the Kd turned out to be 0.001 nM.
The same measure, in the same setting: the value for B2 was 0.001 nM; that for B3 was 0.001 nM.
Turning to B4, the Kd was 0.001 nM.
Still for that read-out and setting: to B5 belongs 0.001 nM; to B6, 100 nM; to B7, 0.001 nM.
In the case of B8, the Kd came out at 0.082 nM. This Kd lies about 82-fold higher than the previous one.
Consider B9, for which the Kd amounted to 0.001 nM.
Same read-out and setting: the value for B10 was 0.001 nM; that for B11 was 11 nM; that for B12 was 3.8 nM.
On to B13, for which the Kd is 0.81 nM.
Still for that read-out and setting: the value for B14 was 0.018 nM.
The same measure, in the same setting: the value for B15 was 100 nM; that for B16 was 0.0027 nM; that for B17 was 0.001 nM.

Another assay deals with fusion glycoprotein of the MPV D280 used in the neutralization assay of Example 3 (metapneumovirus (strain not stated)). Nature of the assay: cell-based or functional assay.
The molecule B2 came in with an MPV D280 Neutralization - IC50 of 0.0158 µg/mL.
Still for that read-out and setting: to B3 belongs 0.0158 µg/mL; to B5, 0.0192 µg/mL.
Same read-out and setting: to B6 belongs 0.102 µg/mL; to B7, 0.0098 µg/mL.
Still for that read-out and setting: to B9 belongs 0.0236 µg/mL; to B11, 0.0177 µg/mL.
B12: the MPV D280 Neutralization - IC50 was determined as 0.027 µg/mL.
On the same count and under the same terms, the value for B13 was 0.0049 µg/mL; that for B15 was 0.003 µg/mL.
B16 came in with an MPV D280 Neutralization - IC50 of 0.135 µg/mL.
In turn, B17 came in with an MPV D280 Neutralization - IC50 of 0.0078 µg/mL.

A further assay concerns the target fusion glycoprotein of the RSV used in the neutralization assay of Example 1 (respiratory syncytial virus (strain not stated)). Nature of the assay: cell-based or functional assay.
On to B2, for which the RSV Neutralization - IC50 amounted to 0.0344 µg/mL.
Still for that read-out and setting: the value for B3 was 0.0147 µg/mL; that for B5 was 0.0335 µg/mL; that for B6 was 0.0252 µg/mL.
Same read-out and setting: to B7 belongs 0.014 µg/mL; to B9, 0.0264 µg/mL.
Still for that read-out and setting: to B11 belongs 0.0136 µg/mL; to B13, 0.0082 µg/mL; to B15, 0.0211 µg/mL.
The molecule B16 returned an RSV Neutralization - IC50 of 0.162 µg/mL.
On the same count and under the same terms, to B17 belongs 0.0239 µg/mL; to B18, 0.0024 µg/mL.

(Values after patent US20260028391A1.)
